The values that follow come from article PMC11629065.

The target in test [1] is IL1RL1 with the extracellular risk allele (rs1041973 [C]) and the TIR signalling domain risk haplotype (rs10192157 [C]) (human) (UniProt Q01638).
The target of test [2] is IL1RL1 with the extracellular risk allele (rs1041973 [C]) and the protective TIR signalling domain haplotype (rs10192157 [T]) (human) (UniProt Q01638).
Test [3] has as its target IL1RL1 with the extracellular risk allele (rs1041973 [C]) and the TIR signalling domain risk haplotype (rs10192157 [C]) (human) (UniProt Q01638). The source holds these as a separate data set.

In test [1], “IL33 Exon 3,4 deletion variant (IL33_(Δ3,4)) (ligand)” had an IL8 EC50 (IL8 ELISA of supernatant, transfected HEK293, risk:risk haplotype) of 1.5 nM; an IL8 in supernatant (ELISA) of HEK293 reporter cells transfected with IL1RL1, IL33 0.0001-50 ng/mL, 24 h; IL8 ELISA maximum of 28.1 pg/µL; an SEAP EC50 Risk:Risk (NF-κB SEAP reporter, transfected HEK293) of 0.0221 nM; an SEAP activity (NF-κB reporter) in supernatant of HEK293 reporter cells transfected with IL1RL1, IL33 0.0001-50 ng/mL, 24 h; SEAP maximum (OD) of 2.47 OD. The same molecule gave an SEAP EC50 Risk:Prot (NF-κB SEAP reporter, transfected HEK293) in test [2] of 0.0466 nM. Also, the IL8 in supernatant (ELISA) of HEK293 reporter cells transfected with IL1RL1; maximum as told in the text (differs from the table's cell) in test [3] worked out at 28.1 pg/mL.

B1: IL33_(112–270) (ABNOVA) (ligand)
chain: SITGISPITEYLASLSTYNDQSITFALEDESYEIYVEDLKKDEKKDKVLLSYYESQHPSNESGDGVDGKMLMVTLSPTKDFWLHANNKEHSVELHKCEKPLPDQAFFVLHNMHSNCVSFECKTDPGVFIGVKDNHLALIKVDSSENLCTENILFKLSET
In test [1], B1 registered an IL8 EC50 (IL8 ELISA of supernatant, transfected HEK293, risk:risk haplotype) of 0.0698 nM; an IL8 in supernatant (ELISA) of HEK293 reporter cells transfected with IL1RL1, IL33 0.0001-50 ng/mL, 24 h; IL8 ELISA maximum of 24.6 pg/µL; an SEAP EC50 Risk:Risk (NF-κB SEAP reporter, transfected HEK293) of 0.0462 nM; an SEAP activity (NF-κB reporter) in supernatant of HEK293 reporter cells transfected with IL1RL1, IL33 0.0001-50 ng/mL, 24 h; SEAP maximum (OD) of 3.28 OD. For the same molecule, the SEAP EC50 Risk:Prot (NF-κB SEAP reporter, transfected HEK293) in test [2] amounted to 0.2 nM.

B2: IL33_(113–270) (ligand)
chain: ITGISPITEYLASLSTYNDQSITFALEDESYEIYVEDLKKDEKKDKVLLSYYESQHPSNESGDGVDGKMLMVTLSPTKDFWLHANNKEHSVELHKCEKPLPDQAFFVLHNMHSNCVSFECKTDPGVFIGVKDNHLALIKVDSSENLCTENILFKLSET
In test [1], B2 displayed an IL8 EC50 (IL8 ELISA of supernatant, transfected HEK293, risk:risk haplotype) of 1.58 nM; an IL8 in supernatant (ELISA) of HEK293 reporter cells transfected with IL1RL1, IL33 0.0001-50 ng/mL, 24 h; IL8 ELISA maximum of 37.8 pg/µL; an SEAP EC50 Risk:Risk (NF-κB SEAP reporter, transfected HEK293) of 0.0135 nM; an SEAP activity (NF-κB reporter) in supernatant of HEK293 reporter cells transfected with IL1RL1, IL33 0.0001-50 ng/mL, 24 h; SEAP maximum (OD) of 2.6 OD. Besides, the SEAP EC50 Risk:Prot (NF-κB SEAP reporter, transfected HEK293) in test [2] stood at 0.189 nM.

B3: IL33_(95–270) (ligand)
chain: AFGISGVQKYTRALHDSSITGISPITEYLASLSTYNDQSITFALEDESYEIYVEDLKKDEKKDKVLLSYYESQHPSNESGDGVDGKMLMVTLSPTKDFWLHANNKEHSVELHKCEKPLPDQAFFVLHNMHSNCVSFECKTDPGVFIGVKDNHLALIKVDSSENLCTENILFKLSET
In the case of B3, in test [1], the IL8 EC50 (IL8 ELISA of supernatant, transfected HEK293, risk:risk haplotype) worked out at 0.00074 nM; the IL8 in supernatant (ELISA) of HEK293 reporter cells transfected with IL1RL1, IL33 0.0001-50 ng/mL, 24 h; IL8 ELISA maximum was found to be 49.7 pg/µL; the SEAP EC50 Risk:Risk (NF-κB SEAP reporter, transfected HEK293) turned out to be 0.00699 nM; the SEAP activity (NF-κB reporter) in supernatant of HEK293 reporter cells transfected with IL1RL1, IL33 0.0001-50 ng/mL, 24 h; SEAP maximum (OD) came out at 3.79 OD. This molecule also displayed an SEAP EC50 Risk:Prot (NF-κB SEAP reporter, transfected HEK293) in test [2] of 0.0427 nM.

B4: IL33_(109–270) (ligand)
chain: HDSSITGISPITEYLASLSTYNDQSITFALEDESYEIYVEDLKKDEKKDKVLLSYYESQHPSNESGDGVDGKMLMVTLSPTKDFWLHANNKEHSVELHKCEKPLPDQAFFVLHNMHSNCVSFECKTDPGVFIGVKDNHLALIKVDSSENLCTENILFKLSET
As for B4, in test [1], the IL8 EC50 (IL8 ELISA of supernatant, transfected HEK293, risk:risk haplotype) was 0.00117 nM; the IL8 in supernatant (ELISA) of HEK293 reporter cells transfected with IL1RL1, IL33 0.0001-50 ng/mL, 24 h; IL8 ELISA maximum turned out to be 24.6 pg/µL; the SEAP EC50 Risk:Risk (NF-κB SEAP reporter, transfected HEK293) worked out at 0.0147 nM; the SEAP activity (NF-κB reporter) in supernatant of HEK293 reporter cells transfected with IL1RL1, IL33 0.0001-50 ng/mL, 24 h; SEAP maximum (OD) amounted to 3.07 OD. In addition, the SEAP EC50 Risk:Prot (NF-κB SEAP reporter, transfected HEK293) in test [2] worked out at 0.0712 nM.

B5: IL33_(99–270) (ligand)
chain: SGVQKYTRALHDSSITGISPITEYLASLSTYNDQSITFALEDESYEIYVEDLKKDEKKDKVLLSYYESQHPSNESGDGVDGKMLMVTLSPTKDFWLHANNKEHSVELHKCEKPLPDQAFFVLHNMHSNCVSFECKTDPGVFIGVKDNHLALIKVDSSENLCTENILFKLSET
On to B5, for which, in test [1], the IL8 EC50 (IL8 ELISA of supernatant, transfected HEK293, risk:risk haplotype) came to 29 nM; the IL8 in supernatant (ELISA) of HEK293 reporter cells transfected with IL1RL1, IL33 0.0001-50 ng/mL, 24 h; IL8 ELISA maximum was determined as 42.9 pg/µL; the SEAP EC50 Risk:Risk (NF-κB SEAP reporter, transfected HEK293) amounted to 0.0292 nM; the SEAP activity (NF-κB reporter) in supernatant of HEK293 reporter cells transfected with IL1RL1, IL33 0.0001-50 ng/mL, 24 h; SEAP maximum (OD) was 3.58 OD. The molecule also registered an SEAP EC50 Risk:Prot (NF-κB SEAP reporter, transfected HEK293) in test [2] of 0.0906 nM.
